Experimental data reported in patent US20120178908A1 (Novo Nordisk, published 2012).

T1: TLT1 (human TLT-1, reagent of the SPR studies, source NN) (human, UniProt Q86YW5 16-162, limits assumed)
T1 sequence: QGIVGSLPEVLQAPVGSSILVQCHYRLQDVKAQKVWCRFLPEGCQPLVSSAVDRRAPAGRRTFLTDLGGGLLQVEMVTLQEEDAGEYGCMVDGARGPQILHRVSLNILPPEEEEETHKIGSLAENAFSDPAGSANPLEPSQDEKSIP

T2: hTLT-1 ECD-HPC4 K46A (human, UniProt Q86YW5 16-162)
T2 construct: As m27; also called Ala mutant 10
T2 chain: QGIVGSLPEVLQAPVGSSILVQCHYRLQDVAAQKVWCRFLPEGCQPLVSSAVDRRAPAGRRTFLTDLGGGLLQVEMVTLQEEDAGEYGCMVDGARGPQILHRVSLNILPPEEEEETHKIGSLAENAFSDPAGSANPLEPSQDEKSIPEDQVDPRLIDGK

T3: hTLT-1 ECD-HPC4 M91A (human, UniProt Q86YW5 16-162)
T3 construct: As m27; also called Ala mutant 24
T3 chain: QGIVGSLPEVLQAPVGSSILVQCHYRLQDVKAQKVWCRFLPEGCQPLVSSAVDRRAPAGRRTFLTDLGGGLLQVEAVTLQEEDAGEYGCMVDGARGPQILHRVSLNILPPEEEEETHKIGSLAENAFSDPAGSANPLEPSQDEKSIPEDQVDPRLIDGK

T4: hTLT-1 ECD-HPC4 R110A (human, UniProt Q86YW5 16-162)
T4 construct: As m27; also called Ala mutant 30
T4 chain: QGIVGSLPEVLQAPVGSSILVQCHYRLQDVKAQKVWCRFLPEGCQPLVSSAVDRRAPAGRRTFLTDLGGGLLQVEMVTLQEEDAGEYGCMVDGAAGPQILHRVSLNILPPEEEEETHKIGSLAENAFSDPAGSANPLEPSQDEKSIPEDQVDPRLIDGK

T5: hTLT-1 ECD-HPC4 L42A (human, UniProt Q86YW5 16-162)
T5 construct: As m27; also called Ala mutant 8
T5 chain: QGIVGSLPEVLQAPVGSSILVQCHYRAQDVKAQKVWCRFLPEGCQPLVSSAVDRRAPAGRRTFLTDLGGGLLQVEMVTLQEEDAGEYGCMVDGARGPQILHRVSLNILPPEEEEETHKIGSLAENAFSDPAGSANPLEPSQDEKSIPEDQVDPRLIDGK

T6: hTLT-1 ECD-HPC4 Q43A (human, UniProt Q86YW5 16-162)
T6 construct: As m27; also called Ala mutant 9
T6 chain: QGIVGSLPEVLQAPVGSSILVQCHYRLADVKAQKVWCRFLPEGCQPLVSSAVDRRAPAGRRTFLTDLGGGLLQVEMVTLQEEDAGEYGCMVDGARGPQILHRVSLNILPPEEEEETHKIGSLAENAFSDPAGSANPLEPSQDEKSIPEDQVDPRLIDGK

T7: hTLT-1 ECD-HPC4 F54A (human, UniProt Q86YW5 16-162)
T7 construct: As m27; also called Ala mutant 12
T7 chain: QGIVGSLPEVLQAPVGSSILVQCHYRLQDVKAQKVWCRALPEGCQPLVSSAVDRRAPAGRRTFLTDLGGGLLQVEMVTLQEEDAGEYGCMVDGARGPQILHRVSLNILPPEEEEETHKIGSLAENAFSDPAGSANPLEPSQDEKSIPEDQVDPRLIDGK

T8: hTLT-1 ECD-HPC4 R41A (human, UniProt Q86YW5 16-162)
T8 construct: As m27; also called Ala mutant 7
T8 chain: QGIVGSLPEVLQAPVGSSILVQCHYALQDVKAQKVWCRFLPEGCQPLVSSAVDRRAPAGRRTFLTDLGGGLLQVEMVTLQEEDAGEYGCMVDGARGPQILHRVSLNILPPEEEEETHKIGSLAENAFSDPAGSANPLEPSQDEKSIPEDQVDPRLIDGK

T9: hTLT-1 ECD-HPC4 H116A (human, UniProt Q86YW5 16-162)
T9 construct: As m27; also called Ala mutant 31
T9 chain: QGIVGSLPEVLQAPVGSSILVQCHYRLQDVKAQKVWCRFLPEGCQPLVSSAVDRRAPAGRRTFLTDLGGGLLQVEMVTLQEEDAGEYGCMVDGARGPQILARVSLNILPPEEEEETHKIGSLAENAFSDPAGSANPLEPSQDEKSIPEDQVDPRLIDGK

T10: hTLT-1 ECD-HPC4 S119A (human, UniProt Q86YW5 16-162)
T10 construct: As m27; also called Ala mutant 33
T10 chain: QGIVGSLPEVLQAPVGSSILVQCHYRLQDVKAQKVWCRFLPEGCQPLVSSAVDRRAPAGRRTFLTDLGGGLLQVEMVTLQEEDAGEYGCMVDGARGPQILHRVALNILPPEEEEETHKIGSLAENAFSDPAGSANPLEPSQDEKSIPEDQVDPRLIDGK

T11: hTLT-1 ECD-HPC4 R117A (human, UniProt Q86YW5 16-162)
T11 construct: As m27; also called Ala mutant 32
T11 chain: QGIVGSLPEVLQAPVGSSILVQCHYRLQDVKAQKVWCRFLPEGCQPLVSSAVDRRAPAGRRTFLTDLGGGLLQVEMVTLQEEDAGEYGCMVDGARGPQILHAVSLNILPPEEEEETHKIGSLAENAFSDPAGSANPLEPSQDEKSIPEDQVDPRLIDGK


Tests used:
[1] = molecular target: T1, TLT1 (human TLT-1, reagent of the SPR …); experiment: SPR (Biacore), mAb immobilised directly on CM5, TLT1 as analyte
Experimental: The mAbs of interest were either immobilized directly to a CM5 chip or by capture via a human Fc capture mAb immobilized to a CM5 chip.
Direct capture: The TLT-1 mAbs were immobilised to a level of approx 500-1000 RU on a CM5 chip (50 μg/ml diluted in Na-acetate, pH 4.0) using the standard procedure recommended by the supplier. Two-fold dilutions of TLT1 from 200 nM to 0.2 nM were tested for binding to the mABs. Running and dilution buffer: 10 mM HEPES, 150 mM, 0.005% p20, pH 7.4. Regeneration was obtained by 10 mM Glycine, pH 1.7.

hTLT-1 ECD-HPC4 K46A = molecular target: T2, hTLT-1 ECD-HPC4 K46A; experiment: SPR (ProteOn), mAb captured by anti-hFc, 100 nM mutant, signal 10 s after injection normalised to captured mAb
Experimental: (§1) Each anti-body was diluted in 10 mM sodium acetate pH 5.0 to a concentration of […], and was immobilized to an individual flow cell at 30 μl/min for 240s. The antibodies were immobilized to flow cells A1-A6 (horizontal direction). After immobilization, the active sites on the flow cell were blocked with 1 M ethanolamine. The final immobilization level of capture antibody typically ranged from approximately 9,000 to 10,000 RU in one experiment. Capture of the anti-TLT1 antibodies 0197-0000-0023, 0197-0000-0051, 0197-0000-0061 and 0197-0000-0062 was conducted by diluting to […] into HBS-EP buffer (10 mM HEPES, 150 mM NaCl, 3 mM EDTA, 0.05% surfactant P20, pH 7.4) and injected at 30 μl/min for 60s in vertical direction, creating interspot reference points with only anti-human Fc antibodies. The final capture level of test antibodies typically ranged from approximately 200 to 300 RU in one experiment. Binding of wt or Ala mutant hTLT-1 ECD-HPC4 protein was conducted by injecting over parallel flow cells in horizontal direction to allow for comparative analyses of binding to different captured anti-TLT1 antibodies relative to binding to the interspot references. Each hTLT-1 ECD-HPC4 protein was diluted to 100 nM, based on the calculated average Mw, into HBS-EP buffer and injected at 30 μl/min for 240s. The GLM chip was regenerated after each injection cycle of analyte via one 18 s injection of 1 M Formic acid followed by a 18s injection of 50 mM NaOH at 100 μl/min. This regeneration step removed the anti-TLT1 antibody and any bound TLT1 from the immobilized capture antibody surface, and allowed for the subsequent binding of the next test sample pair.
(§2) Data analysis was performed using the ProteOn Manager™ Software. No significant non-specific binding to the interspot control surfaces was observed. Binding curves were processed by double referencing (subtraction of interspot control surface signals as well as blank buffer injections over captured anti-TLT1 antibodies). This allowed correction for instrument noise, bulk shift and drift during sample injections. Binding signal at 10 s after stop of analyte injection was normalized to level of captured anti-TLT1 antibody and presented as binding relative to wt hTLT-1 ECD-HPC4 protein.

hTLT-1 ECD-HPC4 M91A = molecular target: T3, hTLT-1 ECD-HPC4 M91A; experiment: as above
Experimental: as §1, §2

hTLT-1 ECD-HPC4 R110A = molecular target: T4, hTLT-1 ECD-HPC4 R110A; experiment: as above
Experimental: as §1, §2

hTLT-1 ECD-HPC4 L42A = molecular target: T5, hTLT-1 ECD-HPC4 L42A; experiment: as above
Experimental: as §1, §2

hTLT-1 ECD-HPC4 Q43A = molecular target: T6, hTLT-1 ECD-HPC4 Q43A; experiment: as above
Experimental: as §1, §2

hTLT-1 ECD-HPC4 F54A = molecular target: T7, hTLT-1 ECD-HPC4 F54A; experiment: as above
Experimental: as §1, §2

hTLT-1 ECD-HPC4 R41A = molecular target: T8, hTLT-1 ECD-HPC4 R41A; experiment: as above
Experimental: as §1, §2

hTLT-1 ECD-HPC4 H116A = molecular target: T9, hTLT-1 ECD-HPC4 H116A; experiment: as above
Experimental: as §1, §2

hTLT-1 ECD-HPC4 S119A = molecular target: T10, hTLT-1 ECD-HPC4 S119A; experiment: as above
Experimental: as §1, §2

hTLT-1 ECD-HPC4 R117A = molecular target: T11, hTLT-1 ECD-HPC4 R117A; experiment: as above
Experimental: as §1, §2

Row | Binder | Kd [1] [nM] | koff [1] [s⁻¹] | kon [1] [M⁻¹ s⁻¹] | binding relative to wt hTLT-1 ECD-HPC4 (hTLT-1 ECD-HPC4 K46A) | binding relative to wt hTLT-1 ECD-HPC4 (hTLT-1 ECD-HPC4 M91A) | binding relative to wt hTLT-1 ECD-HPC4 (hTLT-1 ECD-HPC4 R110A) | binding relative to wt hTLT-1 ECD-HPC4 (hTLT-1 ECD-HPC4 L42A) | binding relative to wt hTLT-1 ECD-HPC4 (hTLT-1 ECD-HPC4 Q43A) | binding relative to wt hTLT-1 ECD-HPC4 (hTLT-1 ECD-HPC4 F54A) | binding relative to wt hTLT-1 ECD-HPC4 (hTLT-1 ECD-HPC4 R41A) | binding relative to wt hTLT-1 ECD-HPC4 (hTLT-1 ECD-HPC4 H116A) | binding relative to wt hTLT-1 ECD-HPC4 (hTLT-1 ECD-HPC4 S119A) | binding relative to wt hTLT-1 ECD-HPC4 (hTLT-1 ECD-HPC4 R117A)
1 | mAb 0023 HC2; LC2 (antibody, V domains shown, also called 0197-0000-0023) VH: EVRLVESGGGLVQPGGSLKLSCATSGFTFSDYFMYWIRQTPEKRLEWVAYISNGGDSSSYPDTVKGRFTISRDNAKNTLYLQMSRLKSEDTAMYYCATNKNWDDYYDMDYWGQGTSVTVSS VL: DIVVSQSPSSLAVSAGEKVTMSCKSSQSLLNSRTRKNYLAWYQQKPGQSPKLLIYWASTRESGVPDRFTGSGSGTDFTLTISSVQAEDLAVYYCKQSYNLLTFGAGTKLELKR | 4.36 | 0.00125 | 287000 | < 0.2 fraction of wt binding | < 0.4 fraction of wt binding | < 0.2 fraction of wt binding | < 0.2 fraction of wt binding | < 0.2 fraction of wt binding |  |  |  |  | 
2 | mAb 0062 HC2; LC2 (antibody, V domains shown, also called 0197-0000-0062; 0052HC.C91Y + 0052LC) VH: QVQLQQSGAEPMKPGASVKISCKATGYTFSSHWIEWIKQRPGHGLEWIGEILPGSGNTNYNEKFKGKATFTADTSSNTAYMQLSSLTSEDSAVYYCARGYYGLNYDWYFDVWGAGTTVTVSS VL: DIQMTQTTSSLSASLGDRVTISCRASQDISNYLNWYQQKPDGTVKLLIFYTSRLHSGVPSRFSGSGSGTDYSLTISNLEPEDIATYYCQQDTKLPYTFGGGTKLEMKR | 4.12 | 0.00134 | 326000 |  | < 0.4 fraction of wt binding | < 0.2 fraction of wt binding | < 0.6 fraction of wt binding | < 0.4 fraction of wt binding | < 0.6 fraction of wt binding | < 0.2 fraction of wt binding | < 0.6 fraction of wt binding |  | 
3 | mAb 0051 HC2; LC2 (antibody, V domains shown, also called 0197-0000-0051) VH: QVQLEQSGAELVRPGVSVKISCKGSGYTFTDYSMHWVKQSHAKSLEWIGVISTYYGDVRYNQKFKGKATMTVDKSSSTAYMALARLTSEDSAIYYCARAPMITTGAWFAYWGQGTLVTVSA VL: SIVMTQTPKFLLVSAGDRVTITCKASQSVSNDVAWYQQKPGQSPKLLINYASSRYTGIPDRFTGSGYGTDFTFTISTVQAEDLAVYFCQQDYSSPYTFGGGTKLEIER | 19.3 | 0.00472 | 245000 |  | < 0.2 fraction of wt binding |  |  |  | < 0.4 fraction of wt binding |  |  | < 0.6 fraction of wt binding | < 0.2 fraction of wt binding
